From patent US20170044251A1

Experiments:
Assay in all cases: ELISA on coated peptide-OVA conjugate, FCA control egg yolk sample, dilution not given
[1] = target: IL-10 Peptide #1 (SEQ ID NO: 1) conjugated to hen ovalbumin (avian animals, such as chickens, quail, and turkeys; hen) (UniProt P01012)
[2] = target: IL-10 Peptide #3 (SEQ ID NO: 7) conjugated to hen ovalbumin (avian animals, such as chickens, quail, and turkeys; hen) (UniProt P01012)
[3] = target: IL-10 Peptide #4 (SEQ ID NO: 10) conjugated to hen ovalbumin (avian animals, such as chickens, quail, and turkeys; hen) (UniProt P01012)

optical density [1]: 0.56 OD 450 nm
optical density [2]: 0.499 OD 450 nm
optical density [3]: 0.6 OD 450 nm
Substance: FCA control egg antibody
